The source of these data is PMC5966431.

What all share (assay): SEC; Size-exclusion chromatography of the purified His6-tagged recombinant proteins. Column and buffer are not told for these proteins. Dimerization was not detected consistently under the authors' conditions.
Test [1] concerns the target Valg4460 (PL17 family polysaccharide lyase, subfamily 2, Vibrio alginolyticus) (Vibrio alginolyticus).
Test [2] addresses Pedsa1196 (PL17 family alginate lyase, subfamily 2, Pedobacter saltans) (Pedobacter saltans).
Test [3] concerns the target Mase04140 (PL17 family alginate lyase, subfamily 2, Alteromonas macleodii) (Alteromonas macleodii).

For the substance “Valg4460 (PL17 family polysaccharide lyase, subfamily 2, Vibrio alginolyticus) (enzyme)”, the stoichiometry N in test [1] was 2.

Take “Pedsa1196 (PL17 family alginate lyase, subfamily 2, Pedobacter saltans) (enzyme)”: in test [2], the stoichiometry N was 2.

Consider “Mase04140 (PL17 family alginate lyase, subfamily 2, Alteromonas macleodii) (enzyme)”, for which the stoichiometry N in test [3] came out at 2.
